Earlier results, collected in article PMC2912330.
Where two headings read alike, the source gives them in different places.

What was measured:
VEGFR2 (Homo sapiens) [1] = target: VEGFR2 (Homo sapiens) (UniProt P35968)
VEGFR2 (Homo sapiens) [2] = target: VEGFR2 (Homo sapiens) (UniProt P35968); remark: listed apart in the source

Sequence of UniProt P35968 (P35968 20-1356): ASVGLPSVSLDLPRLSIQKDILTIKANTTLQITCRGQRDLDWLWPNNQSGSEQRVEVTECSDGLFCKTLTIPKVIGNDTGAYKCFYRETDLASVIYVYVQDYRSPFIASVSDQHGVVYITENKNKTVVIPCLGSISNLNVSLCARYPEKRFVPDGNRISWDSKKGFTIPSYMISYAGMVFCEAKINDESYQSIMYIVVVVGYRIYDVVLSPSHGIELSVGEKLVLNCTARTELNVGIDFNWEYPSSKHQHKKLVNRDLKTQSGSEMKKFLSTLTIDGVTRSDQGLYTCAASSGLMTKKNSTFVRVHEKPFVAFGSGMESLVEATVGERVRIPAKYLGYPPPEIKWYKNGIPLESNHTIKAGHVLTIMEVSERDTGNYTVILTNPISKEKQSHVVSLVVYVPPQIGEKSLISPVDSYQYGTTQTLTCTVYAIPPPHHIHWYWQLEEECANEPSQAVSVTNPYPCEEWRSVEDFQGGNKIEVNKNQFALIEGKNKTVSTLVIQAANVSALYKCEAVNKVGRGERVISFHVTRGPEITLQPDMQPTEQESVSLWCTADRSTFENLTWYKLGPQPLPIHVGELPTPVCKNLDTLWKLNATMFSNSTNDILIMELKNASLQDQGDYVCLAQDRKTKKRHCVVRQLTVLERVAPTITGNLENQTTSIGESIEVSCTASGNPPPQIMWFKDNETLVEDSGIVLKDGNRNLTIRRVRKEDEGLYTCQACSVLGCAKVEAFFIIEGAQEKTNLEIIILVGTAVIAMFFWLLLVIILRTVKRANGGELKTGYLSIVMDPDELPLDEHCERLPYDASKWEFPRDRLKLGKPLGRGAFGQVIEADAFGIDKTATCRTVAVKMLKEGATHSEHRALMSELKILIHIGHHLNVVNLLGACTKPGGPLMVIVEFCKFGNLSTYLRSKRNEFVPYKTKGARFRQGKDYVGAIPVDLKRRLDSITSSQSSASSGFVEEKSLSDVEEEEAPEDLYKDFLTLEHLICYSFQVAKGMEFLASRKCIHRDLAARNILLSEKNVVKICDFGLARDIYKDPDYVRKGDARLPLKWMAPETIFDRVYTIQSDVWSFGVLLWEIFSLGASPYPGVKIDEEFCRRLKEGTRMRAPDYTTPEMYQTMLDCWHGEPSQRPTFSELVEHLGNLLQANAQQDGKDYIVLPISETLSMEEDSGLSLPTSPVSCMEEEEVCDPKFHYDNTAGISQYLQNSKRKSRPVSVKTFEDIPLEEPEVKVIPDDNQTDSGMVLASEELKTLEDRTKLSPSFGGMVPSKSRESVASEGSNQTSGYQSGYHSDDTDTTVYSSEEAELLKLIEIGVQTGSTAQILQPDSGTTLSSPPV

Kd (VEGFR2 (Homo sapiens) [1]) [pM]	Kd (VEGFR2 (Homo sapiens) [2]) [pM]	Substance
100		VEGF165 VEGF165 (from UniProt P15692)
	100	VEGF114 VEGF114 (from UniProt P15692)
